# Residue numbers refer to the chain shown, from its start.
# B1: NRP1-76 (VHH)
# VHH: EVQLVESGGGLVQPGGSLRLSCAASGITFRRYAMGWFRQAPGKEREIVATIWWTFDAPYYADSVKGRFTISADNSKNTAYLQMNSLKPEDTAVYYCAAYQAGWGDWGQGTLVTVSS
# B2: NRP1-74 (VHH)
# VHH: B1 VHH with I27S, F29L, R31D, A33T, I47F
# B3: NRP1-61 (VHH)
# VHH: B1 VHH with I27R, R30S, I47W, T50G, W52S, F55G, D56G, A57I, P58T, A101R
# B4: NRP1-2 (VHH)
# VHH: B1 VHH with I27G, R30T, R31K, Y32Q, A33T, I47F
# B5: NRP1-83 (VHH)
# VHH: B1 VHH with I27S, T28I, F29G, R31E, Y32V, I47L
# B6: NRP1-72 (VHH)
# VHH: B1 VHH with I27R, I47F, W52S, T54S, F55G, D56A, A57L, P58T, Y59H, A101R
# B7: NRP1-1 (VHH)
# VHH: EVQLVESGGGLVQPGGSLRLSCAASGRTFRRYAMGWFRQAPGKEREFVASISRSGTLTRYADSVKGRFTISADNSKNTAYLQMNSLKPEDTAVYYCAAKTGAFSYGSLWWMSRAYNWGQGTLVTVSS
# B8: NRP1-7 (VHH)
# VHH: EVQLVESGGGLVQPGGSLRLSCAASGRIFIIYAMGWFRQAPGKERELVAAITRTGGRPCYADSVKGRFTISADNSKNTAYLQMNSLKPEDTAVYYCAARRMLSPEGAHPDWGQGTLVTVSS
# B9: NRP1-87 (VHH)
# VHH: EVQLVESGGGLVQPGGSLRLSCAASGRIFTMGWFRQAPGKEREFVASITTDGNTLYADSVKGRFTISADNSKNTAYLQMNSLKPEDTAVYYCARWVGASAYHYGMDVWGQGTLVTVSS
# B10: NRP1-37 (VHH)
# VHH: EVQLVESGGGLVQPGGSLRLSCAASGRTFSIYAMGWFRQAPGKERELVAAISRTGGSTYYADSVKGRFTISADNSKNTAYLQMNSLKPEDTAVYYCAADRMYRPVGNQYDWGQGTLVTVSS
# B11: NRP1-81 (VHH)
# VHH: B10 VHH with T28S, F29S, S30R, I31Y, L47F, S52R, R53W, G56M, S57N, Y59H
# B12: NRP1-99 (VHH)
# VHH: B10 VHH with F29S, S30N, L47F, T54S, S57L, T58K, Y59S
# B13: NRP1-47 (VHH)
# VHH: B10 VHH with T28S, F29S, S30R, I31Y, L47F, S52K, R53W, T54S, G56T
# B14: NRP1-75 (VHH)
# VHH: B10 VHH with F29I, I31V, S52N, T54S, G56K
# B15: NRP1-86 (VHH)
# VHH: EVQLVESGGGLVQPGGSLRLSCAASGNIFINNAMGWFRQAPGKERELVAAITSSSGRRWYADSVKGRFTISADNSKNTAYLQMNSLKPEDTAVYYCAADRMYRPVGNQYDWGQGTLVTVSS
# B16: NRP1-106 (VHH)
# VHH: B10 VHH with D99R, M101I, Y102V, R103N, P104V, V105E, N107A, Q108Y, Y109R
# B17: NRP1-114 (VHH)
# VHH: B10 VHH with T28S, F29S, S30R, I31Y, L47F, S52R, R53W, T54S, S57T, Y59F
# B18: NRP1-85 (VHH)
# VHH: EVQLVESGGGLVQPGGSLRLSCAASGSRFSGRFNILNMGWFRQAPGKERESVAAINWSGGTSTYYADSVKGRFTISADNSKNTAYLQMNSLKPEDTAVYYCAAGSNIGGSRWRYDWGQGTLVTVSS
# B19: NRP1-92 (VHH)
# VHH: EVQLVESGGGLVQPGGSLRLSCAASGLLFSSYDMGWFRQAPGKEREFVAAITSGGRKNYADSVKGRFTISADNSKNTAYLQMNSLKPEDTAVYYCARYDYSGGLTFDYWGQGTLVTVSS
# B20: NRP1-71 (VHH)
# VHH: EVQLVESGGGLVQPGGSLRLSCAASGRTFSNAAMGWFRQAPGKERELVARITPGGNTNYADSVKGRFTISADNSKNTAYLQMNSLKPEDTAVYYCAARRIVNVEGAYRDWGQGTLVTVSS
# B21: NRP1-48 (VHH)
# VHH: B20 VHH with R27F, S30R, A32F, A33G, P53G, N56S, N58A
# B22: NRP1-59 (VHH)
# VHH: B20 VHH with F29I, R50S, T52S, P53R, G54F, N56R
# B23: NRP1-46 (VHH)
# VHH: B20 VHH with R27F, S30R, A32F, A33G, L47I, T52S, G54S, N58Y
# B24: NRP1-65 (VHH)
# VHH: B20 VHH with F29I, L47W, R50A, P53S, N56Y, N58H
# B25: NRP1-77 (VHH)
# VHH: B20 VHH with T28I, S30I, A32N, T52S, G54A, N56S, N58Y
# B26: NRP1-51 (VHH)
# VHH: B20 VHH with R27F, T28A, A32Y, A33H
# B27: NRP1-100 (VHH)
# VHH: B20 VHH with T28S, F29V, N31T, A32Y, A33G, R50S, T52S, P53R, G54F, N56R
# B28: NRP1-80 (VHH)
# VHH: EVQLVESGGGLVQPGGSLRLSCAASGSIDRINAMGWFRQAPGKEREFVASIWWTFDAPYYADSVKGRFTISADNSKNTAYLQMNSLKPEDTAVYYCATWTTTWGRNRDWGQGTLVTVSS
# B29: NRP1-89 (VHH)
# VHH: EVQLVESGGGLVQPGGSLRLSCAASGINFSRYGMGWFRQAPGKEREWVSAISSGGGSITTYADSVKGRFTISADNSKNTAYLQMNSLKPEDTAVYYCARHNSGWHFDYWGQGTLVTVSS
# B30: NRP1-79 (VHH)
# VHH: EVQLVESGGGLVQPGGSLRLSCAASGRTYYAMGWFRQAPGKEREFVAAISWGGGLTVYADSVKGRFTISADNSKNTAYLQMNSLKPEDTAVYYCASSGWLTDYYYAMDVWGQGTLVTVSS
# B31: NRP1-96 (VHH)
# VHH: EVQLVESGGGLVQPGGSLRLSCAASGLTYTMSWFRQAPGKEREFVAGFSGSGSVTSYADSVKGRFTISADNSKNTAYLQMNSLKPEDTAVYYCAAFDGYSGSDWGQGTLVTVSS
# B32: NRP1-17 (VHH)
# VHH: EVQLVESGGGLVQPGGSLRLSCAASGRFSRINSMGWFRQAPGKERELVAAIMWSGGSTKYADSVKGRFTISADNSKNTAYLQMNSLKPEDTAVYYCAAGSPSRLVNMWQYNWGQGTLVTVSS
# B33: NRP1-91 (VHH)
# VHH: EVQLVESGGGLVQPGGSLRLSCAASGNIFINNAMGWFRQAPGKERELVAAITSSSGRRWYADSVKGRFTISADNSKNTAYLQMNSLKPEDTAVYYCAAGSPSRLVNMWQYNWGQGTLVTVSS
# B34: NRP1-41 (VHH)
# VHH: B32 VHH with L47S, M52S, S54N, T58I, K59Y
# B35: NRP1-88 (VHH)
# VHH: EVQLVESGGGLVQPGGSLRLSCAASGGIFSRYDMGWFRQAPGKEREFVATITSTGDTYADSVKGRFTISADNSKNTAYLQMNSLKPEDTAVYYCARLGGNSEYYYYYGMDVWGQGTLVTVSS
# B36: NRP1-93 (VHH)
# VHH: EVQLVESGGGLVQPGGSLRLSCAASGIPFRSRTMGWFRQAPGKEREFVATINTGGGTYADSVKGRFTISADNSKNTAYLQMNSLKPEDTAVYYCARHGDTYYYGSGTVRSLDYWGQGTLVTVSS
# B37: NRP1-78 (VHH)
# VHH: EVQLVESGGGLVQPGGSLRLSCAASGRTFRSYPMGWFRQAPGKEREWVASITSSATAYADSVKGRFTISADNSKNTAYLQMNSLKPEDTAVYYCALGPVRRSRLEWGQGTLVTVSS
# B38: NRP1-90 (VHH)
# VHH: EVQLVESGGGLVQPGGSLRLSCAASGGIFSINDMGWFRQAPGKEREFVARITSGGSTNYADSVKGRFTISADNSKNTAYLQMNSLKPEDTAVYYCAKADYYDSSDFDSWGQGTLVTVSS
# Target: T1, neuropilin-1 (NRP1) on HEK293 cells overexpressing NRP1 (UniProt O14786 22-923, limits assumed)
# T1 construct: whole, on cells
# Test: flow cytometry, HEK293-NRP1 vs HEK293
row,Binder,100 nM FACS (MFI Ratio)
1,B1,3.1
2,B2,5.8
3,B3,0.9
4,B4,15.7
5,B5,6.9
6,B6,3
7,B7,15.4
8,B8,233
9,B9,3.7
10,B10,8.8
11,B11,5
12,B12,0.8
13,B13,6.6
14,B14,4.2
15,B15,2.4
16,B16,2.2
17,B17,8.7
18,B18,5
19,B19,6

row,Binder,100 nM FACS (MFI Ratio)
1,B20,0.4
2,B21,0.7
3,B22,0.4
4,B23,2.2
5,B24,0.7
6,B25,4.9
7,B26,0.8
8,B27,0.6
9,B28,6.9
10,B29,1.8
11,B30,13.2
12,B31,1.4
13,B32,1960
14,B33,2.7
15,B34,6.1
16,B35,2.8
17,B36,1.4
18,B37,3.6
19,B38,1

# From US20230265198A1 (TWIST BIOSCIENCE, published 2023)
